Source: patent US20140274782A1, “AFFINITY REAGENTS AND METHODS FOR DETECTION, PURIFICATION, AND PROTEOMIC ANALYSIS OF METHYLATED PROTEINS” (The Board of Trustees of the Leland Stanford Junior …, priority 2013, published 2014)

Columns and labels:
[1] = target: BHMT, G9a-methylated (human) (UniProt Q93088); test: ProtoArray methylated with G9a SET domain
[2] = target: CCL24, G9a-methylated (human) (UniProt O00175); test: ProtoArray methylated with G9a SET domain
[3] = target: LRRC20, G9a-methylated (human) (UniProt Q8TCA0); test: ProtoArray methylated with G9a SET domain
Sequence of LRRC20, G9a-methylated (human) (Q8TCA0 whole entry, the tested form may be a part): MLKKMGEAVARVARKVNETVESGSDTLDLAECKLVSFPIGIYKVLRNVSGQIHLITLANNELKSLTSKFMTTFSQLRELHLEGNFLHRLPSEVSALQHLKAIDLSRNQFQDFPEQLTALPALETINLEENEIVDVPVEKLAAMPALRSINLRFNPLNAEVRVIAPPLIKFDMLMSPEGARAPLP

[4] = target: UBE2S, G9a-methylated (human) (UniProt Q16763); test: ProtoArray methylated with G9a SET domain
Sequence of UBE2S, G9a-methylated (human) (Q16763 whole entry, the tested form may be a part): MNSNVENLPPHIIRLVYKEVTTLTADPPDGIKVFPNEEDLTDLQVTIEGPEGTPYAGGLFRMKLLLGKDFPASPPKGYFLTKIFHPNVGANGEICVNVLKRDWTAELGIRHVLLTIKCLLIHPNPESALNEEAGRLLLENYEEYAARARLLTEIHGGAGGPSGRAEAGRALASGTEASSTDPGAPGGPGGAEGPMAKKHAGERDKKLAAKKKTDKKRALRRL

[5] = target: LARP6, G9a-methylated (human) (UniProt Q9BRS8); test: ProtoArray methylated with G9a SET domain
Sequence of LARP6, G9a-methylated (human) (Q9BRS8 other isoform, or with tags, fused parts or gaps limits assumed): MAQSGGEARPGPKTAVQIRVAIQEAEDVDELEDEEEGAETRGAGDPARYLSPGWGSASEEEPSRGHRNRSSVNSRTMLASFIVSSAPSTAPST

[6] = target: CAB39L, G9a-methylated (human) (UniProt Q9H9S4); test: ProtoArray methylated with G9a SET domain
[7] = target: GPR108, G9a-methylated (human) (UniProt Q9NPR9); test: ProtoArray methylated with G9a SET domain
[8] = target: TGDS, G9a-methylated (human) (UniProt O95455); test: ProtoArray methylated with G9a SET domain
[9] = target: VPS29, G9a-methylated (human) (UniProt Q9UBQ0); test: ProtoArray methylated with G9a SET domain
[10] = target: SERPINB2, G9a-methylated (human) (UniProt P05120); test: ProtoArray methylated with G9a SET domain
Sequence of SERPINB2, G9a-methylated (human) (P05120 whole entry, the tested form may be a part): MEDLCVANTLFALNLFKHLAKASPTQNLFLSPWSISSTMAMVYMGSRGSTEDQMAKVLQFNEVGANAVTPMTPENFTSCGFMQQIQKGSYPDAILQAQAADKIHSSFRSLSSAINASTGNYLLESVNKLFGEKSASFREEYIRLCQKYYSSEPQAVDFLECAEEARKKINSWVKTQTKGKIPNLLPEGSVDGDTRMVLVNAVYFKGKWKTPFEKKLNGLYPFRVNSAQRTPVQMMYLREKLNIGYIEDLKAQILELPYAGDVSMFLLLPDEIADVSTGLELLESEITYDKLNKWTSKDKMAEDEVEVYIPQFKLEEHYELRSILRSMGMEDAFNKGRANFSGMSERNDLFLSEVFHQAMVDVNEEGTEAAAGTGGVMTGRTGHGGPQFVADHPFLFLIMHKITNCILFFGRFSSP

[11] = target: C10orf83, G9a-methylated (human) (UniProt Q8NDC4); test: ProtoArray methylated with G9a SET domain
[12] = target: SEC22B, G9a-methylated (human) (UniProt O75396); test: ProtoArray methylated with G9a SET domain
Sequence of SEC22B, G9a-methylated (human) (O75396 whole entry, the tested form may be a part): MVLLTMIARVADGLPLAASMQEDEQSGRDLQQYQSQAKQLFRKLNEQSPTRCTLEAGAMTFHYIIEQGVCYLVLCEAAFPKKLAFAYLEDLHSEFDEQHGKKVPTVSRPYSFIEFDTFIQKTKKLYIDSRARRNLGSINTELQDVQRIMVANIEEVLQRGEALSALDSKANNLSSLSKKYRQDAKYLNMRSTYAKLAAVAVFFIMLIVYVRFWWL

[13] = target: LYRM7, G9a-methylated (human) (UniProt Q5U5X0); test: ProtoArray methylated with G9a SET domain
[14] = target: LYPLAL1, G9a-methylated (human) (UniProt Q5VWZ2); test: ProtoArray methylated with G9a SET domain
Sequence of LYPLAL1, G9a-methylated (human) (Q5VWZ2 whole entry, the tested form may be a part): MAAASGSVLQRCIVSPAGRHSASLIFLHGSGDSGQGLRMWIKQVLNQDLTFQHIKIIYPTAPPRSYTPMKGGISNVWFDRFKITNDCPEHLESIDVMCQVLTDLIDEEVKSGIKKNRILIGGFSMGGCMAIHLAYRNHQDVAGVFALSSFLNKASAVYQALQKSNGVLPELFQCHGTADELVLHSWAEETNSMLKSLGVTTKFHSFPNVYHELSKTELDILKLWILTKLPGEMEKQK

[15] = target: CLDN15, G9a-methylated (human) (UniProt P56746); test: ProtoArray, G9a array SNR minus GST array SNR
[16] = target: RAB33B, G9a-methylated (human) (UniProt Q9H082); test: ProtoArray, G9a array SNR minus GST array SNR
Sequence of RAB33B, G9a-methylated (human) (Q9H082 whole entry): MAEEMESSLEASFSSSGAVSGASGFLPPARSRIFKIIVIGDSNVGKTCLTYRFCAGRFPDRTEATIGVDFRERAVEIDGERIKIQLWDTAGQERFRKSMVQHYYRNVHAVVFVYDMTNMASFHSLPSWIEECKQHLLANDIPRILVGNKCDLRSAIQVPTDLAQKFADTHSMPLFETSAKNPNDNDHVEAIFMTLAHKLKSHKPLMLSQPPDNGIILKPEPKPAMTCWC

[17] = target: Magmas, G9a-methylated (human) (UniProt Q9Y3D7); test: ProtoArray, G9a array SNR minus GST array SNR
[18] = target: UBE2S, G9a-methylated (human) (UniProt Q16763); test: ProtoArray, G9a array SNR minus GST array SNR
[19] = target: SH3YL1 (hit 65), G9a-methylated (human) (UniProt Q96HL8); test: ProtoArray, G9a array SNR minus GST array SNR
Sequence of SH3YL1 (hit 65), G9a-methylated (human) (Q96HL8 whole entry): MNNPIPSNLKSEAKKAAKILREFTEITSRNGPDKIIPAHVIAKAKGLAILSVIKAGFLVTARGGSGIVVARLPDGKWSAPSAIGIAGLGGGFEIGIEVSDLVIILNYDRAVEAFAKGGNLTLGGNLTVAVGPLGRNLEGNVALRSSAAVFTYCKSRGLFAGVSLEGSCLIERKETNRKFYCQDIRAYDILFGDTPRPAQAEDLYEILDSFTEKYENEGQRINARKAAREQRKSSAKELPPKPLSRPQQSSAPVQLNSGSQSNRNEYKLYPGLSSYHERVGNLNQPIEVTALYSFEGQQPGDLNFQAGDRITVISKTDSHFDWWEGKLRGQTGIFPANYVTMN

[20] = target: MOBKL3, G9a-methylated (human) (UniProt Q9Y3A3); test: ProtoArray, G9a array SNR minus GST array SNR
[21] = target: GAL, G9a-methylated (human) (UniProt P22466); test: ProtoArray, G9a array SNR minus GST array SNR
Sequence of GAL, G9a-methylated (human) (P22466 20-123 limits assumed): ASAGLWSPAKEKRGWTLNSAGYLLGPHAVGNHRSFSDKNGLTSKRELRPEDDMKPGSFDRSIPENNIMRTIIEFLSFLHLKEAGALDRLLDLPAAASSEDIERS

[22] = target: LARP6, G9a-methylated (human) (UniProt Q9BRS8); test: ProtoArray, G9a array SNR minus GST array SNR
[23] = target: DGKA, G9a-methylated (human) (UniProt P23743); test: ProtoArray, G9a array SNR minus GST array SNR
Sequence of DGKA, G9a-methylated (human) (P23743 whole entry): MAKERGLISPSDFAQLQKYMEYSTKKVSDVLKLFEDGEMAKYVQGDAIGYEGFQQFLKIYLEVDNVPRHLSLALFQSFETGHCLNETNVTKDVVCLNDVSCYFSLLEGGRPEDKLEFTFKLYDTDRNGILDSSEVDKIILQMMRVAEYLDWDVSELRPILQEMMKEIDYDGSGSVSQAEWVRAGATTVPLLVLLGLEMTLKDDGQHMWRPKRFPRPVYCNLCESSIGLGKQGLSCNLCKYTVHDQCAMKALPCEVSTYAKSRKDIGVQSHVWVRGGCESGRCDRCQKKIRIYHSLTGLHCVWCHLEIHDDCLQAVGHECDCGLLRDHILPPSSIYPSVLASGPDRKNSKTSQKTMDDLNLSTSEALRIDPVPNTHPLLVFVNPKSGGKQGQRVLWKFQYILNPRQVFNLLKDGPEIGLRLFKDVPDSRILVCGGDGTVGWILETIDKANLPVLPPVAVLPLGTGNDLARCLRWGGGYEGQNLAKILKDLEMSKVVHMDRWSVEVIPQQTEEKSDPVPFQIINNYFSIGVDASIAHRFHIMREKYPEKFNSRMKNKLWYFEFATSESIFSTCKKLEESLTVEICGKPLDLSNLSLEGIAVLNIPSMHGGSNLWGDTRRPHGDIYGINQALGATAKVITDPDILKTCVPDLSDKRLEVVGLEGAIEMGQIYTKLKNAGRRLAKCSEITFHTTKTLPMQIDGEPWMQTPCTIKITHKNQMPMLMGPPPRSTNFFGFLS

[24] = target: KCTD7, G9a-methylated (human) (UniProt Q96MP8); test: ProtoArray, G9a array SNR minus GST array SNR
[25] = target: PHF20L1, G9a-methylated (human) (UniProt A8MW92); test: ProtoArray, G9a array SNR minus GST array SNR
Sequence of PHF20L1, G9a-methylated (human) (A8MW92 other isoform, or with tags, fused parts or gaps limits assumed): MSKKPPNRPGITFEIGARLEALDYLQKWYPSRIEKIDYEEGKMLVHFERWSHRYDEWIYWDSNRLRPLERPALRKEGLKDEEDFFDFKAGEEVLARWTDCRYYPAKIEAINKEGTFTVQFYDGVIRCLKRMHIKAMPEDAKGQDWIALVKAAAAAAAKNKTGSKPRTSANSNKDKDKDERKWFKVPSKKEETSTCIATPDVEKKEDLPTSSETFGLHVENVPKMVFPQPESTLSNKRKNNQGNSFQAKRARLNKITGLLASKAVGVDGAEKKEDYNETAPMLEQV

[26] = target: GHRL, G9a-methylated (human) (UniProt Q9UBU3); test: ProtoArray, G9a array SNR minus GST array SNR
[27] = target: SNFT, G9a-methylated (human) (UniProt Q9NR55); test: ProtoArray, G9a array SNR minus GST array SNR
[28] = target: LTC4S, G9a-methylated (human) (UniProt Q16873); test: ProtoArray, G9a array SNR minus GST array SNR
Sequence of LTC4S, G9a-methylated (human) (Q16873 whole entry): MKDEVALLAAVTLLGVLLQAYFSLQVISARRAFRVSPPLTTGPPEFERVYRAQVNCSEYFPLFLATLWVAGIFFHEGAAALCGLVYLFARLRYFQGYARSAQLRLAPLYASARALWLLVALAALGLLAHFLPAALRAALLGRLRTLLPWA

[29] = target: VPS29, G9a-methylated (human) (UniProt Q9UBQ0); test: ProtoArray, G9a array SNR minus GST array SNR
[30] = target: FTL, G9a-methylated (human) (UniProt P02792); test: ProtoArray, G9a array SNR minus GST array SNR
Sequence of FTL, G9a-methylated (human) (P02792 whole entry): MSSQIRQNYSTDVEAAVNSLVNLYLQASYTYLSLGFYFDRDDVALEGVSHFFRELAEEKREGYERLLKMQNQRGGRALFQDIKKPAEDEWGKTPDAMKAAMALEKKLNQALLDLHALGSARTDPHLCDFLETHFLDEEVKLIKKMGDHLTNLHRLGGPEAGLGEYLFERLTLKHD

[31] = target: DNTT, G9a-methylated (human) (UniProt P04053); test: ProtoArray, G9a array SNR minus GST array SNR
[32] = target: SERPINB2, G9a-methylated (human) (UniProt P05120); test: ProtoArray, G9a array SNR minus GST array SNR
[33] = target: C12orf62, G9a-methylated (human) (UniProt Q96I36); test: ProtoArray, G9a array SNR minus GST array SNR
[34] = target: CD79A, G9a-methylated (human) (UniProt P11912); test: ProtoArray, G9a array SNR minus GST array SNR
Sequence of CD79A, G9a-methylated (human) (P11912 33-226 limits assumed): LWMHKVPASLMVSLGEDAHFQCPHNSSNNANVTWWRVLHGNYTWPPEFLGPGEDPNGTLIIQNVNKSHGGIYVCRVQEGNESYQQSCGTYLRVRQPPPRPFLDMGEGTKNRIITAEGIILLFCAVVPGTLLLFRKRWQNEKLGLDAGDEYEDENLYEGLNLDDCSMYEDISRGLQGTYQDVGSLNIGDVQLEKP

[35] = target: HIC2, G9a-methylated (human) (UniProt Q96JB3); test: ProtoArray, G9a array SNR minus GST array SNR
[36] = target: MRPL21, G9a-methylated (human) (UniProt Q7Z2W9); test: ProtoArray, G9a array SNR minus GST array SNR
[37] = target: GYPC, G9a-methylated (human) (UniProt P04921); test: ProtoArray, G9a array SNR minus GST array SNR
[38] = target: GNPTAB, G9a-methylated (human) (UniProt Q3T906); test: ProtoArray, G9a array SNR minus GST array SNR
[39] = target: SEC22B, G9a-methylated (human) (UniProt O75396); test: ProtoArray, G9a array SNR minus GST array SNR
[40] = target: SH3YL1 (clone MGC:12275), G9a-methylated (human) (UniProt Q96HL8); test: ProtoArray, G9a array SNR minus GST array SNR
[41] = target: ZBP1, G9a-methylated (human) (UniProt Q9H171); test: ProtoArray, G9a array SNR minus GST array SNR
Sequence of ZBP1, G9a-methylated (human) (Q9H171 whole entry): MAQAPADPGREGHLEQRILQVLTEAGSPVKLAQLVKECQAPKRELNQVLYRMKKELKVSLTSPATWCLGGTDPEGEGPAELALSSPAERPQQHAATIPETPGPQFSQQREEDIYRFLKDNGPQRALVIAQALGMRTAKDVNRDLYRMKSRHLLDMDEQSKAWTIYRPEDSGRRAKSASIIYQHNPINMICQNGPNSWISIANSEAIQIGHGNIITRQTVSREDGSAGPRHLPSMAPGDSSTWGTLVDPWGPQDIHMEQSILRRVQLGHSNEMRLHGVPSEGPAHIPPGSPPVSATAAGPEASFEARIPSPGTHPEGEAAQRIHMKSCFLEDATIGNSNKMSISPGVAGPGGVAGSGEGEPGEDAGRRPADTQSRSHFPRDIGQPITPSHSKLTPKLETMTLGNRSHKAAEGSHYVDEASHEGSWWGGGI

[42] = target: WDR45, G9a-methylated (human) (UniProt Q9Y484); test: ProtoArray, G9a array SNR minus GST array SNR

Sequence of 3× Flag-3×MBT (designed binder) (Q9Y468 258-598): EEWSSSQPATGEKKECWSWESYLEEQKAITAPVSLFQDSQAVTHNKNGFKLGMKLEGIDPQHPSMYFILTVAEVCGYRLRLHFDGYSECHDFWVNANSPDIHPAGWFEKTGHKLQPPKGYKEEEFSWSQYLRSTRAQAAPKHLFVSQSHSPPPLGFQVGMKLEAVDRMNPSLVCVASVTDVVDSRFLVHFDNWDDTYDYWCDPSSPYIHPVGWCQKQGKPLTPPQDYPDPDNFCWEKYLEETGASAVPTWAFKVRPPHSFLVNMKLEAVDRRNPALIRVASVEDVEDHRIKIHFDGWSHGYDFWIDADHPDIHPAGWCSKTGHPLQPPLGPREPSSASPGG
Sequence of BHMT, G9a-methylated (human) (Q93088 whole entry, the tested form may be a part): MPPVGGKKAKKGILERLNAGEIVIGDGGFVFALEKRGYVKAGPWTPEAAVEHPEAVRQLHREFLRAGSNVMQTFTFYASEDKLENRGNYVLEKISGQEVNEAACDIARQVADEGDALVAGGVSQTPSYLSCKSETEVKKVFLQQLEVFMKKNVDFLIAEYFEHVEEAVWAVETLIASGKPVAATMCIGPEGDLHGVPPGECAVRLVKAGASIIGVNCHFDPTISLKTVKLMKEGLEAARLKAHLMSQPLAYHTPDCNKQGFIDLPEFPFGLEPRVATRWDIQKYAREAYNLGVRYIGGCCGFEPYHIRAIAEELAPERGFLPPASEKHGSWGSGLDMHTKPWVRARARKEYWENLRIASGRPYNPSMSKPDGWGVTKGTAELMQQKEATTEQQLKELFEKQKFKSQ

G9a Average SNR [1]: 16.6
G9a Average SNR [2]: 34.5
G9a Average SNR [3]: 32.3
G9a Average SNR [4]: 25
G9a Average SNR [5]: 15.6
G9a Average SNR [6]: 14.6
G9a Average SNR [7]: 19.2
G9a Average SNR [8]: 13.6
G9a Average SNR [9]: 16.6
G9a Average SNR [10]: 17.9
G9a Average SNR [11]: 15.4
G9a Average SNR [12]: 12.6
G9a Average SNR [13]: 17.2
G9a Average SNR [14]: 15.7
G9a-GST [15]: 25.3
G9a-GST [16]: 20.2
G9a-GST [17]: 15.1
G9a-GST [18]: 24.7
G9a-GST [19]: 16.2
G9a-GST [20]: 14
G9a-GST [21]: 13.2
G9a-GST [22]: 16.6
G9a-GST [23]: 14.3
G9a-GST [24]: 13.7
G9a-GST [25]: 20.4
G9a-GST [26]: 24.1
G9a-GST [27]: 17.1
G9a-GST [28]: 12.9
G9a-GST [29]: 15.5
G9a-GST [30]: 33.5
G9a-GST [31]: 49.5
G9a-GST [32]: 17.3
G9a-GST [33]: 14.3
G9a-GST [34]: 14.5
G9a-GST [35]: 16.1
G9a-GST [36]: 21.9
G9a-GST [37]: 13.3
G9a-GST [38]: 15.3
G9a-GST [39]: 13.4
G9a-GST [40]: 12.7
G9a-GST [41]: 14
G9a-GST [42]: 15.2
Substance: 3× Flag-3×MBT (designed binder)
